Data on one molecule can be found in patent US20210079109A1 (Regeneron, published 2021).

The target of experiment [1] is T1, recombinant human CD63 extracellular loop 2 expressed with a C-terminal Myc-Myc-hexahistidine (human).
T1 construct: also called hCD63 EC loop 2-MMH; human CD63 EC loop 2-MMH
As to the kind of experiment: SPR Biacore, mAb captured, 25C. The method, boiled down: (§1)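 Anti-CD63 mAbs captured on anti-mouse Fc or anti-human Fab surfaces; CD63 EC2 reagents flowed in HBS-ET, pH 7.4, at 25° C or 37° C. ka and kd from 1:1 binding model with mass transport limitation; KD and t½ calculated from kinetic rates.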
Background: In SPR one partner is held on a chip, and binding of the other changes the refractive index at the surface.

Experiment [2] addresses T2, recombinant human CD63 extracellular loop 2 expressed with a C-terminal human Fc tag (human).
T2 construct: also called hCD63 EC loop 2-hFc; human CD63 EC loop 2-Fc
Put plainly: SPR Biacore, mAb captured, 25C. In short, it runs like this:
as §1

The target of experiment [3] is T3, human CD63 (human, UniProt P08962 2-238).
T3 construct: stably transfected in NIH3T3/hCD63; The cell line is named under assay; also called hCD63
T3 sequence: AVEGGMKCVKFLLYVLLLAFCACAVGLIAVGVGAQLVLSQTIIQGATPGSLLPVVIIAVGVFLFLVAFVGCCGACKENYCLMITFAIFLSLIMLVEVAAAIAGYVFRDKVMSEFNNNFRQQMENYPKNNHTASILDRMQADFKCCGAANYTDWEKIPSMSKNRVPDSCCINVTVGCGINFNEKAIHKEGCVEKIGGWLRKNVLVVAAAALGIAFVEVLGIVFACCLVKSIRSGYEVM
As to the kind of experiment: ECL, NIH3T3/hCD63 cells; NIH3T3/hCD63 cells (engineered, CD63 overexpressed): binds. As for the experimental part:
(§2) LNCAP cells were determined to have a lower human CD63 copy number than U87MG cells. Non-transfected NIH3T3 cells, which have no detectable expression of human CD63 by fluorescence activated cell sorting (FACS), were included as a negative control.
(§3) Briefly, cell lines were rinsed once in PBS buffer without Ca²⁺/Mg²⁺ and incubated for 10 minutes at 37° C. with Enzyme Free Cell Dissociation Solution (Millipore, Cat #S-004-C) to detach the cells. Cells were then washed once with PBS with Ca²⁺/Mg²⁺ and counted with a Cellometer™ Auto T4 cell counter (Nexcelom Bioscience, LLC). Approximately 2.0×10⁴ NIH3T3/hCD63, LNCAP, U87MG or NIH3T3 cells were seeded separately onto 96-well carbon electrode plates […]) and were then incubated for one hour at 37° C. Nonspecific binding sites were blocked with 2% BSA (w/v) in PBS with Ca²⁺/Mg²⁺ for one hour at room temperature (RT). […] Plates were washed and then incubated with Read Buffer (MSD, Cat #R92TD-2) according to the manufacturer's instructions. Luminescent signals were measured using a SECTOR Imager (MSD).

In experiment [4] the target is T3, human CD63. As to the kind of experiment: ECL, NIH3T3/hCD63 cells; NIH3T3/hCD63 cells, ratio at 3.7 nM Ab: binds. Here is the method:
as §2, §3

Experiment [5] deals with T3, human CD63. As to the kind of experiment: ECL, U87MG cells; U87MG cells (endogenous CD63), ratio at 3.7 nM Ab: binds, EC50 inconclusive. Here is the method: as §2, §3
Experiment [6] concerns the target T1, recombinant human CD63 extracellular …. As to the kind of experiment: SPR Biacore, mAb captured, 37C. The method, boiled down: as §1
Experiment [7] concerns the target T2, recombinant human CD63 extracellular …. As to the kind of experiment: SPR Biacore, mAb captured, 37C. The method, boiled down:
as §1

Experiment [8] has as its target T3, human CD63. As to the kind of experiment: ECL, LNCAP cells; LNCAP cells (lower CD63 copy number), ratio at 3.7 nM Ab: non-binder. Here is the method:
as §2, §3

T2 sequence (chain, as listed by the source limits assumed): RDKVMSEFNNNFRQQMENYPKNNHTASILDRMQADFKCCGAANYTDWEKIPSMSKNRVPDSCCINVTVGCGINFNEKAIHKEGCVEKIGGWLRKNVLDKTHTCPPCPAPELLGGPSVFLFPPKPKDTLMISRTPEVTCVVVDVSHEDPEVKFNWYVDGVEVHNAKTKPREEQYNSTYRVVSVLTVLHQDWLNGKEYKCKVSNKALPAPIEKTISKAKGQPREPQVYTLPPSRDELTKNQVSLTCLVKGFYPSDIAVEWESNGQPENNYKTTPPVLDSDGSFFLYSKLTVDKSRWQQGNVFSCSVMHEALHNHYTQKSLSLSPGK
T1 sequence (chain, as listed by the source limits assumed): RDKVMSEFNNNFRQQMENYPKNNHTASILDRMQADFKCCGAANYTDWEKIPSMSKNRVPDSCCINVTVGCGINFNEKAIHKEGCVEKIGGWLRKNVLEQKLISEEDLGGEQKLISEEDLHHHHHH

B1: H4H11998P2 (antibody, V domains shown)
VH: QVQLVESGGGLVKPGGSLRLSCAASGFSFSDYYITWIRQAPGKGLEWVSYINTGGYTMYYADSVKGRFTISRDNAKNSLYLQMNNLRAEDTAVYYCTRDRRYNFGLDYWGQGTLVTVSS
VL: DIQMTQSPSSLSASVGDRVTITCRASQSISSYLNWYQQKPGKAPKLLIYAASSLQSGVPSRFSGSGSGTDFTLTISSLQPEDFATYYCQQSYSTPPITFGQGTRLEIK
The term Kd denotes the constant that tells how readily two partners part at equilibrium. Usually koff stands for the rate constant with which the complex falls apart. The kon is the rate constant with which the complex forms. For orientation: EC50 means the concentration giving half of the maximal effect. Low values mean greater potency, high ones weaker potency. Consider B1, for which the “100 nM Ag Bound (RU)” value came to 11 RU in experiment [1], 136 RU in experiment [2], 3 RU in experiment [6] and 111 RU in experiment [7]. The Kd came to 11700 nM in experiment [1], 2.58 nM in experiment [2], 174 nM in experiment [6] and 6.5 nM in experiment [7]. Further, the koff in experiment [1] was found to be 0.0309 s⁻¹; in experiment [2] it was 0.000453 s⁻¹; in experiment [6], 0.0917 s⁻¹; in experiment [7], 0.00207 s⁻¹. Besides, the kon in experiment [1] is 2640 M⁻¹ s⁻¹; in experiment [2], 175000 M⁻¹ s⁻¹; in experiment [6], 528000 M⁻¹ s⁻¹; in experiment [7], 318000 M⁻¹ s⁻¹. Further, the t1/2 worked out at 0.4 min in experiment [1], 26 min in experiment [2], 0.1 min in experiment [6] and 6 min in experiment [7]. In experiment [3], this molecule came in with a half-maximal effective concentration (EC50) of 7.4 nM. The “binding ratio at 3.7 nM vs NIH3T3” value is 14 fold in experiment [4], 5 fold in experiment [5] and 1 fold in experiment [8].
